Legend:
[1] = molecular target: Epidermal Growth Factor Receptor (EGFR) expressed on the surface of A431 cells (human (endogenous in A431)) (UniProt P00533); experiment: on-cell binding assay (cell ELISA, chemiluminescence); as a1, but after the 5 min at 37 °C the plate was irradiated with 365-nm light for 10 min (33 mW per cm2) before washing and fixing; Kd from a sigmoidal nonlinear fit
[2] = molecular target: extracellular domain of EGFR (sEGFR) (UniProt P00533); experiment: cross-linking; photocrosslinking in PBS, 10-μl reaction: 10 pmol sEGFR (or BSA) with 100 pmol 7D12 mutant (0-200 pmol in Fig. 2d), 5 min at 37 °C, 365-nm light for 10 min; PNGase F; denaturing SDS-PAGE, Coomassie; percent from band intensities

With 7D12-32pcY-109Bpa (VHH) as the substance, how does the Kd [1] read?
Its Kd is 103 nM.

What about the percent crosslinked to EGFR [2] of the same substance?
The percent crosslinked to EGFR was 33%.

Reference: paper PMC10229432
